Results: PMC10220053, “Molecular basis for Eaf3-mediated assembly of Rpd3S and NuA4” (Cell Discovery, 2023)

B3: Rco1^PHD1–SID (aa 240–376) (domain or fragment, S. cerevisiae, UniProt Q04779 240-376, looked up)
chain: SNASEKIFRDKNNSTIDFENEDFCSACNQSGSFLCCDTCPKSFHFLCLDPPIDPNNLPKGDWHCNECKFKIFINNSMATLKKIESNFIKQNNNVKIFAKLLFNIDSHNPKQFQLPNYIKETFPAVKTGSRGQYSDEN
notes: also called Rco1^SID1–PHD

Tests used:
[1] = target: T1, C-terminal MRG domain of Eaf3 (Eaf3^MRG, aa 218–401) (S. cerevisiae, UniProt Q12432 218-401); assay: ITC; SUMO–Eaf7^108–143 or SUMO alone with Eaf3^MRG or the Eaf3^MRG–Rco1^PHD1–SID complex; conditions: both partners purified
T1 construct: Eaf3, S. cerevisiae, C-terminal MRG domain, aa 218–401
T1 sequence (looked up): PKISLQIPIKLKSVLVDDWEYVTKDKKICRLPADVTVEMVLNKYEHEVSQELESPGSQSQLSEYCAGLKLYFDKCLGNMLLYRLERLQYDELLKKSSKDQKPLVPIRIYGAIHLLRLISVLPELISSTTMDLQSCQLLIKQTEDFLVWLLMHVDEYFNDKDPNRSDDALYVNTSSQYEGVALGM

Rco1^PHD1 alone = target: T2, Rco1^PHD1 alone (S. cerevisiae, Zn2+-bound PHD finger. Limits for PHD1 alone are not given; taken from the SID-deleted truncation Rco1 240-313 in the text, which covers PHD1 (zinc finger 260-309)); assay: ITC; H3 1–12 peptides with the Eaf3^MRG–Rco1^PHD1–SID complex or with Rco1^PHD1 alone; conditions: both partners purified
T2 chain: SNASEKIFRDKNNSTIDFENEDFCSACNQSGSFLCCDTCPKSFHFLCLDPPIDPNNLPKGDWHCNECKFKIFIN

[2] = target: B3; assay: crystal structure; Eaf3^MRG–Rco1^PHD1–SID–H3K4me0^1–12 ternary complex, 1.60 Å; conditions: both partners purified
[3] = target: T1, C-terminal MRG domain of Eaf3 …; assay: pull-down; GST pull-down / affinity pull-down of Eaf3^MRG (wild type and mutants) with Rco1^PHD1–SID (wild type, mutants, truncation); which partner carried GST is not told

B1: SUMO–Eaf7^108–143 (domain or fragment, S. cerevisiae, UniProt P53911 108-143, looked up)
chain: EETLLELNNRIRVRKQDFTLPWEEYGELILENARKS
**Q.** For B1, which Kd [1] is on record?
**A.** 1 µM

B2: H3K4me0^1–12 peptide (peptide, UniProt P61830 2-13, looked up)
peptide: ARTKQTARKSTG
notes: Histone H3, residues 1–12, Lys4 unmodified; also called H3K4me0 peptide; unmodified H3K4
**Q.** B2 was tested. Which Kd (Rco1^PHD1 alone) did it give?
**A.** 110 µM

**Q.** Does B2 bind [2]?
**A.** binds

**Q.** Does B3 bind [3]?
**A.** binds
